Reference: patent publication US20050064533

Tests used:
[1] = biological target: recombinant C-terminal 90 amino acids of human HIF-1a, valine preceding the target asparagine changed to alanine, Q16665
[2] = biological target: recombinant C-terminal 90 amino acids of human HIF-1a, C of the hydroxylation motif changed to alanine, Q16665
[3] = biological target: recombinant C-terminal 90 amino acids of human HIF-1a, tyrosine (Y) of the hydroxylation motif changed to alanine, Q16665
[4] = biological target: recombinant C-terminal 90 amino acids of human HIF-1a, wild type, Q16665
[5] = biological target: recombinant C-terminal 90 amino acids of human HIF-1a, D of the hydroxylation motif changed to alanine, Q16665
[6] = biological target: recombinant C-terminal 90 amino acids of human HIF-1a, glutamic acid (E) of the hydroxylation motif changed to alanine, Q16665
[7] = biological target: recombinant C-terminal 90 amino acids of human HIF-1a, conserved G 5 amino acids C-terminal to the target asparagine changed to alanine, Q16665
recombinant C-terminal 90 amino acids of human HIF-1a, conserved G 5 amino acids C-terminal to the target asparagine changed to alanine, Q16665, sequence (Q16665 other isoform, or with tags, fused parts or gaps): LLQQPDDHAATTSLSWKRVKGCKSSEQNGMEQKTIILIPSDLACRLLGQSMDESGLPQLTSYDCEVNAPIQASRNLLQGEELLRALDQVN

recombinant C-terminal 90 amino acids of human HIF-1a, tyrosine (Y) of the hydroxylation motif changed to alanine, Q16665, sequence (Q16665 737-826 Y798A): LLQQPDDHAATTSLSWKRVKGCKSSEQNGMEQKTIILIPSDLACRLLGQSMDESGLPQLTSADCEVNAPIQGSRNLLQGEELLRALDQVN
recombinant C-terminal 90 amino acids of human HIF-1a, wild type, Q16665, sequence (Q16665 737-826): as the sequence (Q16665 737-826 Y798A) above, with A62Y counted along it
recombinant C-terminal 90 amino acids of human HIF-1a, D of the hydroxylation motif changed to alanine, Q16665, sequence (Q16665 737-826 D799A): as the sequence (Q16665 737-826 Y798A) above, with A62Y, D63A counted along it
recombinant C-terminal 90 amino acids of human HIF-1a, glutamic acid (E) of the hydroxylation motif changed to alanine, Q16665, sequence (Q16665 other isoform, or with tags, fused parts or gaps): as the sequence (Q16665 737-826 Y798A) above, with A62Y, E65A counted along it
recombinant C-terminal 90 amino acids of human HIF-1a, C of the hydroxylation motif changed to alanine, Q16665, sequence (Q16665 737-826 C800A): as the sequence (Q16665 737-826 Y798A) above, with A62Y, C64A counted along it
recombinant C-terminal 90 amino acids of human HIF-1a, valine preceding the target asparagine changed to alanine, Q16665, sequence (Q16665 other isoform, or with tags, fused parts or gaps): as the sequence (Q16665 737-826 Y798A) above, with A62Y, V66A counted along it

B1: MBP (maltose binding protein) fused to wild type HIF Asparagine Hydroxylase (HNH) (protein)
chain: MAATAAEAVASGSGEPREEAGALGPAWDESQLRSYSFPTRPIPRLSQSDPRAEELIENEEPVVLTDTNLVYPALKWDLEYLQENIGNGDFSVYSASTHKFLYYDEKKMANFQNFKPRSNREEMKFHEFVEKLQDIQQRGGEERLYLQQTLNDTVGRKIVMDFLGFNWNWINKQQGKRGWGQLTSNLLLIGMEGNVTPAHYDEQQNFFAQIKGYKRCILFPPDQFECLYPYPVHHPCDRQSQVDFDNPDYERFPNFQNVVGYETVVGPGDVLYIPMYWWHHIESLLNGGITITVNFWYKGAPTPKRIEYPLKAHQKVAIMRNIEKMLGEALGNPQEVGPLLNTMIKGRYN
hydroxylation in an in vitro hydroxylation assay [1]: altering this valine to alanine results in very low levels of hydroxylation | hydroxylation in an in vitro hydroxylation assay [2]: an up to 50% decrease in hydroxylation of the target aspargine | hydroxylation in an in vitro hydroxylation assay [3]: Substituting alanine in place of tyrosine (Y) has little effect | hydroxylation assessed by counting liberated 14CO2 [4]: the degree of hydroxylation for each mutant normalised to the level observed for the wild type HIF-1α CAD sequence | hydroxylation in an in vitro hydroxylation assay [5]: an up to 50% decrease in hydroxylation of the target aspargine | hydroxylation in an in vitro hydroxylation assay [6]: The glutamic acid (E) residue is more important or efficient hydroxylation than D or C | hydroxylation in an in vitro hydroxylation assay [7]: an approximately 50% decrease in hydroxylation
